According to patent publication US20110027291A1, “METHODS, SYSTEMS AND PRODUCTS FOR PREDICTING RESPONSE OF TUMOR CELLS TO A THERAPEUTIC AGENT AND TREATING A PATIENT ACCORDING TO THE PREDICTED RESPONSE” (MERRIMACK PHARMACEUTICALS, INC., priority 2008, published 2011):
One block for each molecule: values may come before it.

Assays:
ErbB2 [1] = target: T1, ErbB2 (Homo sapiens, UniProt P04626); test: Lapatinib rate constants from the literature: ErbB2 (Table 13); format: binding
ErbB2 [2] = target: T1, ErbB2; details: cited from earlier work
[3] = tested on: ErbB2 phosphorylation (pErbB2) in NCI-ADRr cells; test: ErbB2 phosphorylation dose response curves for ErbB ligands (ELISA); format: cell-based
Procedure: (§1) For stimulation of the cells, the cells are seeded in 100 μl complete media at 35,000 cells per well in 96 well tissue culture plates and incubated overnight in a humidified atmosphere of 5% CO2, 95% air and 37 degrees Celsius. Cells are then switched to serum free media: RPMI-1640 media (Gibco) supplemented with, 2 mM L-glutamine (Gibco) and units/mL Pen-Strep (Gibco). Starved cells are incubated in a humidified atmosphere of 5% CO2, 95% air and 37 degrees Celsius for 20-24 hours prior to stimulation.
(§2) Levels of protein phosphorylation in the stimulated cells are measured by ELISA. Capture antibodies against ErbB1 (R&D Systems, AF231), ErbB2 (R&D Systems, MAB1129), ErbB3 (R&D Systems, MAB3481) and AKT (Upstate, 05-591MG) are incubated in 384 well black flat-bottom polystyrene high-binding plates (Corning, Catalog #3708) overnight at room temperature. The ELISA plates are blocked with 2% bovine serum albumin (BSA) and phosphate buffered saline (PBS) for one hour then incubated with lysates diluted in 2% BSA, 0.1% Tween-20 and PBS for two hours at room temp. In between each incubation, the plates are washed three times with 0.05% Tween-20 in PBS. ELISAs for measuring phospho-ErbB1, -ErbB2 and -ErbB3 are incubated with phospho-tyrosine horseradish peroxidase (HRP) linked monoclonal antibody (R&D Systems, HAM 1676) for two hours. ELISAs measuring phospho-AKT are incubated with primary serine 473 specific anti-phospho AKT mouse monoclonal antibody (Cell Signaling Technologies, Catalog #5102) for 2 hours, then incubated with Streptavidin-HRP(R&D Systems, Catalog #DY998) for 30 minutes. All ELISAs are visualized with SuperSignal ELISA Pico Chemiluminescent Substrate (Pierce, Catalog #37069) and luminescent signal is measured using a luminometer.

[4] = target: T2, ErbB1 phosphorylation (pErbB1) in NCI-ADRr cells (Homo sapiens, UniProt P00533); test: ErbB1 phosphorylation dose response curves for ErbB ligands (ELISA); format: cell-based
T2 construct: endogenous in cells; host or cells: NCI-ADRr (ADRr) cells
Procedure: as §1, §2

[5] = tested on: AKT phosphorylation (pAKT) in NCI-ADRr cells; test: AKT phosphorylation dose response curves for ErbB ligands (ELISA); format: cell-based
Procedure: as §1, §2

ErbB1 on NCI-ADRr cells = ErbB1 on NCI-ADRr cells (UniProt P00533); test: cell-based or functional assay
[6] = tested on: ErbB3 phosphorylation (pErbB3) in NCI-ADRr cells; test: ErbB3 phosphorylation dose response curves for ErbB ligands (ELISA); format: cell-based
Procedure: as §1, §2

ErbB1 = ErbB1 (Homo sapiens, UniProt P00533); test: ErbB signaling computational model: BTC ligand binding parameters; details: model parameter
Text: (§3) The ErbB receptor signaling network model consists of three receptors (ErbB1, ErbB2, ErbB3), a receptor phosphatase, phosphatidylinositol 3-kinase (PI3K, which binds the receptors) and components of the PI3K-AKT cascade (phosphatidylinositol bisphosphate, PIP2, phosphoinositide-dependent protein kinase, PDK1, PTEN deleted from chromosome 10, PTEN, serine, threonine protein kinase also known as protein kinase B, AKT, Protein phosphatase 2A, PP2A) (see Table 8 below).
(§4) Included in the model were the ligand-induced dimerization, internalization, recycling, and degradation as described in the literature for all homo- and heterodimers (Hendriks, B. S. et al. (2003) J. Biol. Chem. 278:23343-23351; Wang, Z. et al. (1999) Mol. Biol. Cell 10:1621-1636). Receptor dimer stabilities, using the relative scale as published in Shankaran, H. et al. (2008) Biochem. Biophys. Res. Commun. 371:220-224, were implemented, where the coexpression of […] biases signaling to the cell surface and retards signal downregulation and where the simultaneous coexpression of ErbB1-3 leads to an abundance of ErbB2-ErbB3 heterodimers. Therefore, ErbB3-containing dimers internalize and degrade slower than do ErbB1 homodimers or ErbB1-ErbB2 heterodimers. Constitutive dimerization was also included, although ligand-free dimers were assumed not to trigger any downstream signaling (Yu, X. et al. (2002) Mol. Biol. Cell 13:2547-2557) and to remain at the cell surface. ErbB ligands bind with different affinities to ErbB homo- and heterodimers (Teramura, Y. et al. (2006) EMBO J. 25:4215-4222), but to reduce the number of kinetic parameters to be estimated and to describe the experimental data with the simplest model possible, we constrained the binding affinity of the ligands to ErbB homo- and heterodimers to be the same.
(§5) Many of the reaction rate parameters are unknown in the cell system we studied and therefore had to be estimated (see Table 10 below). To avoid biasing the starting point, all parameters were set to default values (Aldridge, B. B. et al. (2006) Nat. Cell. Biol. 8:1195-1203). The number of parameters estimated was limited by performing the estimation in two stages: first the model was calibrated against the experimentally observed ErbB receptor phosphorylation data; second, the parameters sensitive to AKT phosphorylation were optimized against the experimental data. Estimated values were only accepted if the parameters were constrained under multiple parameter runs using a genetic algorithm with a population size of 50 and 25 generations (Mathworks, MA). […] The normalized sensitivities of each species were integrated over the two hour stimulation, and parameters with normalized, integrated sensitivities greater than an arbitrary threshold of 1000 are listed in Table 11 below. As mentioned above, ErbB4 phosphorylation was not included into the parameter estimation because the cell line studied had barely detectable ErbB4 (see Table 3 below). ErbB4 reactions are parameterized according to ErbB3 reactions.

ErbB3 = ErbB3 (Homo sapiens, UniProt P21860); test: ErbB signaling computational model: HRG ligand binding parameters; details: model parameter
Text: as §3, §4, §5

ErbB3 on NCI-ADRr cells = ErbB3 on NCI-ADRr cells (UniProt P21860); test: cell-based or functional assay

Molecule: CS(=O)(=O)CCNCc1ccc(-c2ccc3ncnc(Nc4ccc(OCc5cccc(F)c5)c(Cl)c4)c3c2)o1 [lapatinib]
kfLapatinib_4: Lapatinib inhibitor binding to 2-2 dimers (ErbB2 [1]; 2-2 dimers): 3.00E−12 molecules^−1 sec^−1 | kfLapatinib_2: Lapatinib inhibitor binding from ErbB2 or 2-3 dimers (ErbB2 [1]; unit conversion from M^−1s^−1 /(Vmedia * Av/Num_cells)): 1.50E−12 molecules^−1 sec^−1 | Lapatinib inhibitor binding from ErbB2 or 2-3 dimers (on-rate before unit conversion) (ErbB2 [2]): Unit conversion calculated as 2.95e3 M^−1s^−1/ | krLapatinib_2: Lapatinib inhibitor dissociation to ErbB2 or 2-3 dimers (ErbB2 [2]): 3.83e-05 s⁻¹

pErbB1 % stimulation at 5 min relative to maximum [4]: 9.0%
Molecule: Epiregulin: epiregulin, ErbB ligand
pErbB2 % stimulation at 5 min relative to maximum [3]: 18.0% | pAKT % stimulation at 5 min relative to maximum [5]: 11.0%

EC50 [nM] of pErbB1 dose response, NCI-ADRr cells (ErbB1 on NCI-ADRr cells): 5.7 nM | EC50 [nM] of pErbB3 dose response, NCI-ADRr cells (ErbB1 on NCI-ADRr cells): 100 nM
Molecule: betacellulin (from UniProt P35070 32-111) (ligand)

EC50 [4]: 30 nM
Molecule: TGFα: transforming growth factor alpha, ErbB1 binding ligand

EC50 [nM] of pErbB1 dose response, NCI-ADRr cells (ErbB1 on NCI-ADRr cells): 30 nM
Molecule: transforming growth factor alpha (from UniProt P01135 40-89) (ligand)

EC50 [3]: 230 nM | EC50 [4]: 21 nM | pErbB1 % stimulation at 5 min relative to maximum [4]: 87.0%
Molecule: HB-EGF: heparin-binding epidermal growth factor, ErbB ligand
pErbB2 % stimulation at 5 min relative to maximum [3]: 94.0% | pErbB3 % stimulation at 5 min relative to maximum [6]: 32.0% | pAKT % stimulation at 5 min relative to maximum [5]: 20.0%

EC50 [6]: 100 nM | EC50 [4]: 5.7 nM | kf3: BTC binding to E1 (ErbB1): 5.00 × 10^−11 molecules-1 sec-1 | kr3: BTC dissociation from E1 (ErbB1): 0.001 s⁻¹ | kf5: BTC binding to E1 heterodimers (ErbB1; E1 heterodimers): 5.00 × 10^−11 molecules-1 sec-1 | kf4: BTC binding to E1 homodimers (ErbB1; E1 homodimers): 5.00 × 10^−11 molecules-1 sec-1 | kf129: BTC binding in the endosome (ErbB1; endosome): 3.8 molecules-1 sec-1
Molecule: BTC: betacellulin, ErbB ligand which binds primarily to ErbB1

EC50 [3]: 7 nM | EC50 [6]: 9.9 nM | pErbB1 % stimulation at 5 min relative to maximum [4]: 0.0% | EC50 [5]: 1.9 nM | kr1: HRG dissociation from E3 (ErbB3): 0.001 s⁻¹ | kf2: HRG binding to E3:E2 dimers (ErbB3; E3:E2 dimers): 5.00 × 10^−11 molecules-1 sec-1 | kr2: HRG dissociation from E3:E2 dimers (ErbB3; E3:E2 dimers): 0.001 s⁻¹ | kf127: HRG binding in the endosome (ErbB3; endosome): 3.8 molecules-1 sec-1 | kf1: HRG binding to E3 or E4 (ErbB3; unit conversion from 1e5M-1s-1): 5.00 × 10^−11 molecules-1 sec-1
Molecule: HRG1-β: heregulin, ErbB receptor ligand which binds to ErbB3 and ErbB4
pErbB2 % stimulation at 5 min relative to maximum [3]: 43.0% | pErbB3 % stimulation at 5 min relative to maximum [6]: 100.0% | pAKT % stimulation at 5 min relative to maximum [5]: 100.0%

EC50 [nM] of pErbB1 dose response, NCI-ADRr cells (ErbB1 on NCI-ADRr cells): 21 nM | EC50 [nM] of pErbB2 dose response, NCI-ADRr cells (ErbB1 on NCI-ADRr cells): 230 nM | pAKT, % stimulation at 5 min relative to maximum, NCI-ADRr cells (ErbB1 on NCI-ADRr cells): 20% | pErbB1, % stimulation at 5 min relative to maximum, NCI-ADRr cells (ErbB1 on NCI-ADRr cells): 87% | pErbB2, % stimulation at 5 min relative to maximum, NCI-ADRr cells (ErbB1 on NCI-ADRr cells): 94% | pErbB3, % stimulation at 5 min relative to maximum, NCI-ADRr cells (ErbB1 on NCI-ADRr cells): 32%
Molecule: heparin-binding epidermal growth factor (from UniProt Q99075 63-148) (ligand)

EC50 [6]: 380 nM | EC50 [4]: 37 nM | pErbB1 % stimulation at 5 min relative to maximum [4]: 95.0%
Molecule: AR: amphiregulin, ErbB1 binding ligand
pErbB2 % stimulation at 5 min relative to maximum [3]: 54.0% | pErbB3 % stimulation at 5 min relative to maximum [6]: 17.0% | pAKT % stimulation at 5 min relative to maximum [5]: 28.0%

pErbB1 % stimulation at 5 min relative to maximum [4]: 12.0% | pAKT, % stimulation at 5 min relative to maximum, NCI-ADRr cells (ErbB1 on NCI-ADRr cells): 11% | pErbB1, % stimulation at 5 min relative to maximum, NCI-ADRr cells (ErbB1 on NCI-ADRr cells): 12% | pErbB2, % stimulation at 5 min relative to maximum, NCI-ADRr cells (ErbB1 on NCI-ADRr cells): 25% | pErbB3, % stimulation at 5 min relative to maximum, NCI-ADRr cells (ErbB1 on NCI-ADRr cells): 3%
B1: Epigen (ligand, UniProt Q6UW88 24-104, looked up)
chain: AVTVTPPITAQQGNWTVNKTEADNIEGPIALKFSHLCLEDHNSYCINGACAFHHELEKAICRCFTGYTGERCEHLTLTSYA
pErbB2 % stimulation at 5 min relative to maximum [3]: 25.0% | pErbB3 % stimulation at 5 min relative to maximum [6]: 3.0% | pAKT % stimulation at 5 min relative to maximum [5]: 11.0%

EC50 [nM] of pAKT dose response, NCI-ADRr cells (ErbB3 on NCI-ADRr cells): 1.9 nM | EC50 [nM] of pErbB2 dose response, NCI-ADRr cells (ErbB3 on NCI-ADRr cells): 7 nM | EC50 [nM] of pErbB3 dose response, NCI-ADRr cells (ErbB3 on NCI-ADRr cells): 9.9 nM | pAKT, % stimulation at 5 min relative to maximum, NCI-ADRr cells (ErbB3 on NCI-ADRr cells): 100% | pErbB1, % stimulation at 5 min relative to maximum, NCI-ADRr cells (ErbB3 on NCI-ADRr cells): 0% | pErbB2, % stimulation at 5 min relative to maximum, NCI-ADRr cells (ErbB3 on NCI-ADRr cells): 43% | pErbB3, % stimulation at 5 min relative to maximum, NCI-ADRr cells (ErbB3 on NCI-ADRr cells): 100%
B2: heregulin HRG1-β (ligand, UniProt Q02297-6 177-241, looked up)
chain: SHLVKCAEKEKTFCVNGGECFMVKDLSNPSRYLCKCPNEFTGDRCQNYVMASFYKHLGIEFMEAE

EC50 [nM] of pErbB1 dose response, NCI-ADRr cells (ErbB1 on NCI-ADRr cells): 37 nM | EC50 [nM] of pErbB3 dose response, NCI-ADRr cells (ErbB1 on NCI-ADRr cells): 380 nM | pAKT, % stimulation at 5 min relative to maximum, NCI-ADRr cells (ErbB1 on NCI-ADRr cells): 28% | pErbB1, % stimulation at 5 min relative to maximum, NCI-ADRr cells (ErbB1 on NCI-ADRr cells): 95% | pErbB2, % stimulation at 5 min relative to maximum, NCI-ADRr cells (ErbB1 on NCI-ADRr cells): 54% | pErbB3, % stimulation at 5 min relative to maximum, NCI-ADRr cells (ErbB1 on NCI-ADRr cells): 17%
B3: amphiregulin (ligand, UniProt P15514 101-198, looked up)
chain: SVRVEQVVKPPQNKTESENTSDKPKRKKKGGKNGKNRRNRKKKNPCNAEFQNFCIHGECKYIEHLEAVTCKCQQEYFGERCGEKSMKTHSMIDSSLSK
